Data as given in PMC4358236 (The Journal of Biological Chemistry, 2015).

Target: the molecule itself
Test: SEC-MALS

B1: VACV protein N1 with C-terminal His6 tag (natural protein)
chain: MRTLLIRYILWRNDNDQTYYNDNFKKLMLLDELVDDGDVCTLIKNMRMTLSDGPLLDRLNQPVNNIEDAKRMIAISAKVARDIGERSEIRWEESFTILFRMIETYFDDLMIDLYGEK
stoichiometry N: 2
